# Tests used:
# Assay in all cases: cell-based or functional assay
# [1] = target: T1, human PD-1 overexpressed on HEK-Blue reporter cells (human, UniProt Q15116 25-288)
# human IL-2 receptor [2] = target: T2, human IL-2 receptor (human, UniProt P01589 22-272; P14784 27-551; P31785 23-369)
# T2 sequence (looked up) 1: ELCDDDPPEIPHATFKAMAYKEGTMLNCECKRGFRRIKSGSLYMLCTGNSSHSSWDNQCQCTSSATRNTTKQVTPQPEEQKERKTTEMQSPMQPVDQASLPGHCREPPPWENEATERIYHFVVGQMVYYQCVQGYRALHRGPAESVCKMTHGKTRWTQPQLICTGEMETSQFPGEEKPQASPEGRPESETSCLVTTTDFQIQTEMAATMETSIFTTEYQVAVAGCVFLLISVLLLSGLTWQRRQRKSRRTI
# T2 sequence (looked up) 2: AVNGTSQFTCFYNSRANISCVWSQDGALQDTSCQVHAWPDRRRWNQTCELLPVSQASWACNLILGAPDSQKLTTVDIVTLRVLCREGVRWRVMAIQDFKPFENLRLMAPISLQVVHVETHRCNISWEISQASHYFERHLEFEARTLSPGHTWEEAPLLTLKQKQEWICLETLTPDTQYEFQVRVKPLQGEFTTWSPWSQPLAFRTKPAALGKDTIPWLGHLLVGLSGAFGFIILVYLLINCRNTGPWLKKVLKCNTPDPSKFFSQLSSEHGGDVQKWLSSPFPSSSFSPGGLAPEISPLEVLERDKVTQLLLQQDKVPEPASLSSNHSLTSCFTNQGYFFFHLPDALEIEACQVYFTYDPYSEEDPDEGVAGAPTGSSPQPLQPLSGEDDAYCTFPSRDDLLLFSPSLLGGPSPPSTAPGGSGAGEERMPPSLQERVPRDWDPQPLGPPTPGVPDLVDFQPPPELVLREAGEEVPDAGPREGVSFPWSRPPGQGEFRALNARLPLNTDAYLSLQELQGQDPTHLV
# T2 sequence (looked up) 3: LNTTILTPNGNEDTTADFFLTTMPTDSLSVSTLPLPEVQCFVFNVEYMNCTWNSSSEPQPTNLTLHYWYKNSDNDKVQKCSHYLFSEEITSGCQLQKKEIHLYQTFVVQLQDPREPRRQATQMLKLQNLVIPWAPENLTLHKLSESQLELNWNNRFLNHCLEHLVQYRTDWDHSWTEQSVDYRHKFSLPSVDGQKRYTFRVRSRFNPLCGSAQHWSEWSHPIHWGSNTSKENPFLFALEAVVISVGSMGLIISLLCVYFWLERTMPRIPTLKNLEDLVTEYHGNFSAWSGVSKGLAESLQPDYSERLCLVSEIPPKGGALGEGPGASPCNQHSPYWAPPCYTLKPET
# [3] = target: T1, human PD-1 overexpressed on HEK-Blue …; remark: listed apart in the source
# [4] = target: human IL-12 receptor complex (human, UniProt P42701 24-662; Q99665 24-862)
# human IL-2 receptor [5] = target: T2, human IL-2 receptor; remark: listed apart in the source
# T1 sequence (Q15116 25-288): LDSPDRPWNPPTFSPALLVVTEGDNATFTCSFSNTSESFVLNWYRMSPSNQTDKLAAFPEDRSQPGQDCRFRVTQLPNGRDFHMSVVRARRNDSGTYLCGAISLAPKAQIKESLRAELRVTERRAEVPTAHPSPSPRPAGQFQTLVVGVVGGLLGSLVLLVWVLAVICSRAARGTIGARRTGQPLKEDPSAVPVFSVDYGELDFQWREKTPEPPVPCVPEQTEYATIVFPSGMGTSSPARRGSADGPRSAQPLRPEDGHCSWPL
# Sequence of human IL-12 receptor complex (Q99665 24-862, chain 2 of 2, other chains not shown): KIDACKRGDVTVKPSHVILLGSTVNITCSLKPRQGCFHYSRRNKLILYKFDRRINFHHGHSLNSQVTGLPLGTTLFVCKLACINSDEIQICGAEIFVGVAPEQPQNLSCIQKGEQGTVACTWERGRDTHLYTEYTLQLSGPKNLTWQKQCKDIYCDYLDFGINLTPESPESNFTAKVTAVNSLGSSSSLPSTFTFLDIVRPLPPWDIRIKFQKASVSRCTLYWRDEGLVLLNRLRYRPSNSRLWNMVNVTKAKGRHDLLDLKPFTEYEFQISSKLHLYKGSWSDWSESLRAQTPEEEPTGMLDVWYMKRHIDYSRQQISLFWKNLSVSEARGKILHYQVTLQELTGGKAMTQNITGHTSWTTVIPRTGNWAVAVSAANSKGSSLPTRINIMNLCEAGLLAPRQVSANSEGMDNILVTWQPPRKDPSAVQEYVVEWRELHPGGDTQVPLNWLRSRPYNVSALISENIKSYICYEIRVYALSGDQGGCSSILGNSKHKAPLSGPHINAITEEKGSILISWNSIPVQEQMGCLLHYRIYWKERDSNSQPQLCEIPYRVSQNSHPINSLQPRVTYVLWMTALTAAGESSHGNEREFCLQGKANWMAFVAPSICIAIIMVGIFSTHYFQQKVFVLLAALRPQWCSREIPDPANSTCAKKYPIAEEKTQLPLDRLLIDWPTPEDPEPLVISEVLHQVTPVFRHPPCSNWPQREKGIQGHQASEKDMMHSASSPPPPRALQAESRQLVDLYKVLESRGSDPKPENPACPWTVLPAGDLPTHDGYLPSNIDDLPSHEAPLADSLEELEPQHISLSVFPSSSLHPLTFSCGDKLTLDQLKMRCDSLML
Binder,"IL-2 signal transduction, % of rIL2, HEK-IL-2-PD-1 cells [1]","IL-2 signal transduction, % of rIL2, HEK-IL-2 cells (human IL-2 receptor [2])","IL-2 signal transduction, % of rIL-2, HEK-IL-2-PD-1 cells [3]","IL-12 signal transduction, % of rIL-12, HEK-IL-12-PD-1 cells [3]","IL-12 signal transduction, % of rIL-12, HEK-IL-12 cells [4]","IL-2 signal transduction, % of rIL-2, HEK-IL-2 cells (human IL-2 receptor [5])"
IL-2(L18R/Q22E/R38D/K43E/E61R/Q126T)/PD-L1(mut2)-Fc (Fc fusion) chain 1: FTVTVPKDLYVVEYGSNMTIECKFPVEKQLDLAALQVYWMMEDKNIIQFVHGEEDLKVQHSSYRQRARLLKDQLSLGNAALQITDVKLQDAGVYTCLIAYKGADYKRITVKVNAPYNKINQRILVVDPVTSEHELTCQAEGYPKAEVIWTSSDHQVLSGKTTTTNSKREEKLFNVTSTLRINTTTNEIFYCTFRRLDPEENHTAELVIPELPLAHPPNERGGGSGAPTSSSTKKTQLQLEHLRLDLEMILNGINNYKNPKLTDMLTFEFYMPKKATELKHLQCLERELKPLEEVLNLAQSKNFHLRPRDLISNINVIVLELKGSETTFMCEYADETATIVEFLNRWITFCTSIISTLTGGGGSGGGDKTHTCPPCPAPEKKGGPSVFLFPPKPKDTLMISRTPEVTCVVVDVSHEDPEVKFNWYVDGVEVHNAKTKPREEQYNSTYRVVSVLTVLHQDWLNGKEYKCKVSNKALPAPIEKTISKAKGQPREPQVYVLPPSREEMTKNQVSLLCLVKGFYPSDIAVEWESNGQPENRYMTWPPVLDSDGSFFLYSKLTVDKSRWQQGNVFSCSVMHEALHNHYTQKSLSLSPGK chain 2: FTVTVPKDLYVVEYGSNMTIECKFPVEKQLDLAALQVYWMMEDKNIIQFVHGEEDLKVQHSSYRQRARLLKDQLSLGNAALQITDVKLQDAGVYTCLIAYKGADYKRITVKVNAPYNKINQRILVVDPVTSEHELTCQAEGYPKAEVIWTSSDHQVLSGKTTTTNSKREEKLFNVTSTLRINTTTNEIFYCTFRRLDPEENHTAELVIPELPLAHPPNERGGGGSGGGDKTHTCPPCPAPEDEGGPSVFLFPPKPKDTLMISRTPEVTCVVVDVSHEDPEVKFNWYVDGVEVHNAKTKPREEQYNSTYRVVSVLTVLHQDWLNGKEYKCKVSNKALPAPIEKTISKAKGQPREPQVYVYPPSREEMTKNQVSLTCLVKGFYPSDIAVEWESNGQPENNYKTTPPVLDEDGSFALVSKLTVDKSRWQQGNVFSCSVMHEALHNHYTQKSLSLSPGK,5%,< 0.1%,,,,
IL-2(L18R/Q22E/R38D/K43E/E61R)/IL-12(E59A/F60A)/PD-L1(mut2)-Fc (Fc fusion) chain 1: FTVTVPKDLYVVEYGSNMTIECKFPVEKQLDLAALQVYWMMEDKNIIQFVHGEEDLKVQHSSYRQRARLLKDQLSLGNAALQITDVKLQDAGVYTCLIAYKGADYKRITVKVNAPYNKINQRILVVDPVTSEHELTCQAEGYPKAEVIWTSSDHQVLSGKTTTTNSKREEKLFNVTSTLRINTTTNEIFYCTFRRLDPEENHTAELVIPELPLAHPPNERGGGGSGGGIWELKKDVYVVELDWYPDAPGEMVVLTCDTPEEDGITWTLDQSSEVLGSGKTLTIQVKAAGDAGQYTCHKGGEVLSHSLLLLHKKEDGIWSTDILKDQKEPKNKTFLRCEAKNYSGRFTCWWLTTISTDLTFSVKSSRGSSDPQGVTCGAATLSAERVRGDNKEYEYSVECQEDSACPAAEESLPIEVMVDAVHKLKYENYTSSFFIRDIIKPDPPKNLQLKPLKNSRQVEVSWEYPDTWSTPHSYFSLTFCVQVQGKSKREKKDRVFTDKTSATVICRKNASISVRAQDRYYSSSWSEWASVPCSGGGGSGGGSGGGGSRNLPVATPDPGMFPCLHHSQNLLRAVSNMLQKARQTLEFYPCTSEEIDHEDITKDKTSTVEACLPLELTKNESCLNSRETSFITNGSCLASRKTSFMMALCLSSIYEDLKMYQVEFKTMNAKLLMDPKRQIFLDQNMLAVIDELMQALNFNSETVPQKSSLEEPDFYKTKIKLCILLHAFRIRAVTIDRVMSYLNASGGGGSGGGDKTHTCPPCPAPEDEGGPSVFLFPPKPKDTLMISRTPEVTCVVVDVSHEDPEVKFNWYVDGVEVHNAKTKPREEQYNSTYRVVSVLTVLHQDWLNGKEYKCKVSNKALPAPIEKTISKAKGQPREPQVYVYPPSREEMTKNQVSLTCLVKGFYPSDIAVEWESNGQPENNYKTTPPVLDEDGSFALVSKLTVDKSRWQQGNVFSCSVMHEALHNHYTQKSLSLSPGK chain 2: FTVTVPKDLYVVEYGSNMTIECKFPVEKQLDLAALQVYWMMEDKNIIQFVHGEEDLKVQHSSYRQRARLLKDQLSLGNAALQITDVKLQDAGVYTCLIAYKGADYKRITVKVNAPYNKINQRILVVDPVTSEHELTCQAEGYPKAEVIWTSSDHQVLSGKTTTTNSKREEKLFNVTSTLRINTTTNEIFYCTFRRLDPEENHTAELVIPELPLAHPPNERGGGSGAPTSSSTKKTQLQLEHLRLDLEMILNGINNYKNPKLTDMLTFEFYMPKKATELKHLQCLERELKPLEEVLNLAQSKNFHLRPRDLISNINVIVLELKGSETTFMCEYADETATIVEFLNRWITFCQSIISTLTGGGGSGGGDKTHTCPPCPAPEKKGGPSVFLFPPKPKDTLMISRTPEVTCVVVDVSHEDPEVKFNWYVDGVEVHNAKTKPREEQYNSTYRVVSVLTVLHQDWLNGKEYKCKVSNKALPAPIEKTISKAKGQPREPQVYVLPPSREEMTKNQVSLLCLVKGFYPSDIAVEWESNGQPENRYMTWPPVLDSDGSFFLYSKLTVDKSRWQQGNVFSCSVMHEALHNHYTQKSLSLSPGK,,,35%,19%,< 0.2%,4%
IL-2(L18R/Q22E/R38D/K43E/E61R/Q126T/S130R)/PD-L1(mut2)-Fc (Fc fusion) chain 1: FTVTVPKDLYVVEYGSNMTIECKFPVEKQLDLAALQVYWMMEDKNIIQFVHGEEDLKVQHSSYRQRARLLKDQLSLGNAALQITDVKLQDAGVYTCLIAYKGADYKRITVKVNAPYNKINQRILVVDPVTSEHELTCQAEGYPKAEVIWTSSDHQVLSGKTTTTNSKREEKLFNVTSTLRINTTTNEIFYCTFRRLDPEENHTAELVIPELPLAHPPNERGGGSGAPTSSSTKKTQLQLEHLRLDLEMILNGINNYKNPKLTDMLTFEFYMPKKATELKHLQCLERELKPLEEVLNLAQSKNFHLRPRDLISNINVIVLELKGSETTFMCEYADETATIVEFLNRWITFCTSIIRTLTGGGGSGGGDKTHTCPPCPAPEKKGGPSVFLFPPKPKDTLMISRTPEVTCVVVDVSHEDPEVKFNWYVDGVEVHNAKTKPREEQYNSTYRVVSVLTVLHQDWLNGKEYKCKVSNKALPAPIEKTISKAKGQPREPQVYVLPPSREEMTKNQVSLLCLVKGFYPSDIAVEWESNGQPENRYMTWPPVLDSDGSFFLYSKLTVDKSRWQQGNVFSCSVMHEALHNHYTQKSLSLSPGK chain 2: FTVTVPKDLYVVEYGSNMTIECKFPVEKQLDLAALQVYWMMEDKNIIQFVHGEEDLKVQHSSYRQRARLLKDQLSLGNAALQITDVKLQDAGVYTCLIAYKGADYKRITVKVNAPYNKINQRILVVDPVTSEHELTCQAEGYPKAEVIWTSSDHQVLSGKTTTTNSKREEKLFNVTSTLRINTTTNEIFYCTFRRLDPEENHTAELVIPELPLAHPPNERGGGGSGGGDKTHTCPPCPAPEDEGGPSVFLFPPKPKDTLMISRTPEVTCVVVDVSHEDPEVKFNWYVDGVEVHNAKTKPREEQYNSTYRVVSVLTVLHQDWLNGKEYKCKVSNKALPAPIEKTISKAKGQPREPQVYVYPPSREEMTKNQVSLTCLVKGFYPSDIAVEWESNGQPENNYKTTPPVLDEDGSFALVSKLTVDKSRWQQGNVFSCSVMHEALHNHYTQKSLSLSPGK,< 0.1%,< 0.1%,,,,

# Reference: patent US20230167164A1 (IMMUNOWAKE, published 2023)
